Experimental data: patent US20240352102A1 (UNITED STATES GOVERNMENT AS REPRESENTED BY THE DEPARTMENT …, published 2024)

Legend:
Assay in all cases: peptide microarray
Peptide_001 = molecular target: T1, Peptide_001
T1 peptide: MAEPRQEFEVMEDHA

Peptide_010 = molecular target: T2, Peptide_010
T2 peptide: GDTDAGLKESPLQTP

Peptide_011 = molecular target: T3, Peptide_011
T3 peptide: AGLKESPLQTPTEDG

Peptide_012 = molecular target: T4, Peptide_012
T4 peptide: ESPLQTPTEDGSEEP

Peptide_013 = molecular target: T5, Peptide_013
T5 peptide: QTPTEDGSEEPGSET

Peptide_014 = molecular target: T6, Peptide_014
T6 peptide: EDGSEEPGSETSDAK

Peptide_015 = molecular target: T7, Peptide_015
T7 peptide: EEPGSETSDAKSTPT

Peptide_016 = molecular target: T8, Peptide_016
T8 peptide: SETSDAKSTPTAEAE

Peptide_017 = molecular target: T9, Peptide_017
T9 peptide: DAKSTPTAEAEEAGI

Peptide_018 = molecular target: T10, Peptide_018
T10 peptide: TPTAEAEEAGIGDTP

Peptide_019 = molecular target: T11, Peptide_019
T11 peptide: EAEEAGIGDTPSLED

Peptide_020 = molecular target: T12, Peptide_020
T12 peptide: AGIGDTPSLEDEAAG

Peptide_022 = molecular target: T13, Peptide_022
T13 peptide: LEDEAAGHVTQARMV

Peptide_024 = molecular target: T14, Peptide_024
T14 peptide: VTQARMVSKSKDGTG

Peptide_025 = molecular target: T15, Peptide_025
T15 peptide: RMVSKSKDGTGSDDK

Peptide_026 = molecular target: T16, Peptide_026
T16 peptide: KSKDGTGSDDKKAKG

Peptide_027 = molecular target: T17, Peptide_027
T17 peptide: GTGSDDKKAKGADGK

Peptide_028 = molecular target: T18, Peptide_028
T18 peptide: DDKKAKGADGKTKIA

Peptide_029 = molecular target: T19, Peptide_029
T19 peptide: AKGADGKTKIATPRG

Peptide_003 = molecular target: T20, Peptide_003
T20 peptide: EVMEDHAGTYGLGDR

Peptide_030 = molecular target: T21, Peptide_030
T21 peptide: DGKTKIATPRGAAPP

Peptide_031 = molecular target: T22, Peptide_031
T22 peptide: KIATPRGAAPPGQKG

Peptide_032 = molecular target: T23, Peptide_032
T23 peptide: PRGAAPPGQKGQANA

Peptide_036 = molecular target: T24, Peptide_036
T24 peptide: RIPAKTPPAPKTPPS

Peptide_004 = molecular target: T25, Peptide_004
T25 peptide: DHAGTYGLGDRKDQG

Peptide_006 = molecular target: T26, Peptide_006
T26 peptide: GDRKDQGGYTMHQDQ

Peptide_008 = molecular target: T27, Peptide_008
T27 peptide: YTMHQDQEGDTDAGL

Peptide_009 = molecular target: T28, Peptide_009
T28 peptide: QDQEGDTDAGLKESP

Peptide_039 = molecular target: T29, Peptide_039
T29 peptide: PPSSGEPPKSGDRSG

Peptide_040 = molecular target: T30, Peptide_040
T30 peptide: GEPPKSGDRSGYSSP

Peptide_041 = molecular target: T31, Peptide_041
T31 peptide: KSGDRSGYSSPGSPG

Peptide_042 = molecular target: T32, Peptide_042
T32 peptide: RSGYSSPGSPGTPGS

Peptide_043 = molecular target: T33, Peptide_043
T33 peptide: SSPGSPGTPGSRSRT

Peptide_049 = molecular target: T34, Peptide_049
T34 peptide: EPKKVAVVRTPPKSP

Peptide_052 = molecular target: T35, Peptide_052
T35 peptide: KSPSSAKSRLQTAPV

Peptide_053 = molecular target: T36, Peptide_053
T36 peptide: SAKSRLQTAPVPMPD

Peptide_054 = molecular target: T37, Peptide_054
T37 peptide: RLQTAPVPMPDLKNV

Peptide_056 = molecular target: T38, Peptide_056
T38 peptide: MPDLKNVKSKIGSTE

Peptide_057 = molecular target: T39, Peptide_057
T39 peptide: KNVKSKIGSTENLKH

Peptide_063 = molecular target: T40, Peptide_063
T40 peptide: INKKLDLSNVQSKCG

Peptide_064 = molecular target: T41, Peptide_064
T41 peptide: LDLSNVQSKCGSKDN

Peptide_065 = molecular target: T42, Peptide_065
T42 peptide: NVQSKCGSKDNIKHV

Peptide_067 = molecular target: T43, Peptide_067
T43 peptide: KDNIKHVPGGGSVQI

Peptide_069 = molecular target: T44, Peptide_069
T44 peptide: GGGSVQIVYKPVDLS

Peptide_070 = molecular target: T45, Peptide_070
T45 peptide: VQIVYKPVDLSKVTS

Peptide_071 = molecular target: T46, Peptide_071
T46 peptide: YKPVDLSKVTSKCGS

Peptide_073 = molecular target: T47, Peptide_073
T47 peptide: VTSKCGSLGNIHHKP

- binding result (Peptide_001): no binding (tested: 1 ug/ml)
- binding result (Peptide_010): no binding (tested: 1 ug/ml)
- binding result (Peptide_011): no binding (tested: 1 ug/ml)
- binding result (Peptide_012): no binding (tested: 1 ug/ml)
- binding result (Peptide_013): no binding (tested: 1 ug/ml)
- binding result (Peptide_014): no binding (tested: 1 ug/ml)
- binding result (Peptide_015): no binding (tested: 1 ug/ml)
- binding result (Peptide_016): no binding (tested: 1 ug/ml)
- binding result (Peptide_017): no binding (tested: 1 ug/ml)
- binding result (Peptide_018): no binding (tested: 1 ug/ml)
- binding result (Peptide_019): no binding (tested: 1 ug/ml)
- binding result (Peptide_020): no binding (tested: 1 ug/ml)
- binding result (Peptide_022): no binding (tested: 1 ug/ml)
- binding result (Peptide_024): no binding (tested: 1 ug/ml)
- binding result (Peptide_025): no binding (tested: 1 ug/ml)
- binding result (Peptide_026): no binding (tested: 1 ug/ml)
- binding result (Peptide_027): no binding (tested: 1 ug/ml)
- binding result (Peptide_028): no binding (tested: 1 ug/ml)
- binding result (Peptide_029): no binding (tested: 1 ug/ml)
- binding result (Peptide_003): no binding (tested: 1 ug/ml)
- binding result (Peptide_030): no binding (tested: 1 ug/ml)
- binding result (Peptide_031): no binding (tested: 1 ug/ml)
- binding result (Peptide_032): no binding (tested: 1 ug/ml)
- binding result (Peptide_036): no binding (tested: 1 ug/ml)
- binding result (Peptide_004): no binding (tested: 1 ug/ml)
- binding result (Peptide_006): no binding (tested: 1 ug/ml)
- binding result (Peptide_008): no binding (tested: 1 ug/ml)
- binding result (Peptide_009): no binding (tested: 1 ug/ml)
- binding result (Peptide_039): no binding (tested: 1 ug/ml)
- binding result (Peptide_040): no binding (tested: 1 ug/ml)
- binding result (Peptide_041): no binding (tested: 1 ug/ml)
- binding result (Peptide_042): no binding (tested: 1 ug/ml)
- binding result (Peptide_043): no binding (tested: 1 ug/ml)
- binding result (Peptide_049): no binding (tested: 1 ug/ml)
- binding result (Peptide_052): no binding (tested: 1 ug/ml)
- binding result (Peptide_053): no binding (tested: 1 ug/ml)
- binding result (Peptide_054): no binding (tested: 1 ug/ml)
- binding result (Peptide_056): no binding (tested: 1 ug/ml)
- binding result (Peptide_057): no binding (tested: 1 ug/ml)
- binding result (Peptide_063): no binding (tested: 1 ug/ml)
- binding result (Peptide_064): no binding (tested: 1 ug/ml)
- binding result (Peptide_065): no binding (tested: 1 ug/ml)
- binding result (Peptide_067): no binding (tested: 1 ug/ml)
- binding result (Peptide_069): no binding (tested: 1 ug/ml)
- binding result (Peptide_070): no binding (tested: 1 ug/ml)
- binding result (Peptide_071): no binding (tested: 1 ug/ml)
- binding result (Peptide_073): no binding (tested: 1 ug/ml)
B1: mAb TRC35 (antibody, V domains shown)
VH: QVQLQQPGTELVKPGASVKLSCKASGYTFTSYWLQWVKQRPGQGLEWIGEIDPSDSYTNYNQKFKGKATLTVDTSSSTAYMQLSSLTSEDSAVYYCATLTGSWGQGTTLAVSS
VL: DVLLTQTPLSLPVSLGDQASISCRASQSIVDSNGNTFLEWYLQKSGQSPKVLIYKVSNRFSGVPDRFSGRGSGTDFTLKISRVEAEDLGVYYCFQGSHVPYTFGGGTKLEIK
notes: Mouse hybridoma monoclonal antibody raised in tau knockout mice against tau/poly(A) RNA complexes; IgG1 isotype, kappa light chain; also called TRC35 monoclonal antibody; hybridoma clone #35
